B1: SMAD4: OGT overexpression (protein)
parent chain: MDNMSITNTPTSNDACLSIVHSLMCHRQGGESETFAKRAIESLVKKLKEKKDELDSLITAITTNGAHPSKCVTIQRTLDGRLQVAGRKGFPHVIYARLWRWPDLHKNELKHVKYCQYAFDLKCDSVCVNPYHYERVVSPGIDLSGLTLQSNAPSSMMVKDEYVHDFEGQPSLSTEGHSIQTIQHPPSNRASTETYSTPALLAPSESNATSTANFPNIPVASTSQPASILGGSHSEGLLQIASGPQPGQQQNGFTGQPATYHHNSTTTWTGSRTAPYTPNLPHHQNGHLQHHPPMPPHPGHYWPVHNELAFQPPISNHPAPEYWCSIAYFEMDVQVGETFKVPSSCPIVTVDGYVDPSGGDRFCLGQLSNVHRTEAIERARLHIGKGVQLECKGEGDVWVRCLSDHAVFVQSYYLDREAGRAPGDAVHKIYPSAYIKVFDLRQCHRQMQQQAATAQAAAAAQAAAVAGNIPGPGSVGGIAPAISLSAAAGIGVDDLRRLCILRMSFVKGWGPDYPRQSIKETPCWIEIHLHRALQLLDEVLHTMPIADPQPLD
B2: SMAD4: thiamet-G (protein)
parent chain: B1 parent chain
B3: SMAD4: OSMI-1 (protein)
parent chain: B1 parent chain
B4: SMAD4: T63V (protein)
parent chain: B1 parent chain
B5: SMAD4: QM (protein)
parent chain: B1 parent chain

Assays:
[1] = immunoblot of endogenous SMAD4, A549; details: control: mock / control siRNA / DMSO / 5 mM glucose
[2] = anti-FLAG IP, anti-phospho-threonine blot, HEK293, EGF; details: glycan gained; control: no OGT overexpression
[3] = CHX chase, immunoblot, A549
[4] = denaturing anti-FLAG IP, HA-Ub blot, HEK293, MG132; details: glycan lost; control: FLAG-SMAD4 WT

| Protein | expression_or_secretion ([1]; glycan gained) | other: polyubiquitination [4] | further results |
| --- | --- | --- | --- |
| B1 | increases |  | other: threonine phosphorylation [2]: decreases |
| B2 | increases |  | degradation_or_half_life ([3]; glycan gained, control: untreated (endogenous SMAD4)): increases |
| B3 |  |  | expression_or_secretion ([1]; glycan lost): decreases |
| B4 |  | increases | degradation_or_half_life ([3]; glycan lost, control: FLAG-SMAD4 WT): decreases |
| B5 |  | increases |  |

— publication PMC7670456
